Measurements as given in patent publication US20060019296A1, “Methods of indentifying modulators of the FGF receptor” (Mount Sinai School of Medicine, published 2006).
Square brackets hold non-standard residues; d marks the D form. Ends that are not written are not given here. pY = N[C@@H](Cc1ccc(OP(=O)(O)O)cc1)C(=O)O

T1: hFGFR1 peptide, 22-residue peptide derived from the juxtamembrane region of hFGFR1 (residues 409-430 of SEQ … (named hFGFR1 (human); SEQ ID NO:2 is …)
T1 peptide: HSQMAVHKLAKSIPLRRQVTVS

B1: SNT-1 PTB domain (amino acid residues 11-140 of SEQ ID NO:1) (other)
chain: DTVPDNHRNKFKVINVDDDGNELGSGIMELTDTELILYTRKRDSVKWHYLCLRRYGYDSNLFSFESGRRCQTGQGIFAFKCARAEELFNMLQEIMQNNSINVVEEPVVERNNHQTELEVPRTPRTPTTPGLVPR

Columns and labels:
[1] = molecular target: T1, hFGFR1 peptide, 22-residue peptide …; assay: isothermal titration calorimetry (ITC)
[2] = molecular target: B1; assay: method not stated

Work on B1 yielded a Kd [1] of ~10 µM.

In the case of LVIAGNPA[pY]RS [tyrosine-phosphorylated peptide LVIAGNPApYRS (SEQ ID NO:4)], the Kd [2] is reported as ~1 µM and the “fold higher affinity than for the FGFR derived peptide of SEQ ID NO:3” value [2] is reported as ~10 fold.
